Measured values taken from a protein production outcome set (Wang et al. 2014).

assay: label from the status in PepcDB records

**Q.** For “MRYRNTALFVLLAAVWGSAFVAIKAGVGSPDAPGYFFDAPVLFAAVRYDIAAVLMFAYVAWATDRWRPRGRTEWLAVAVGSAFIIAGYHALLFLGQRGTTSAAAAVIVSLSPVLTTAFARALLADERLSVLGLAGMGVGFLGVVVLSQPTPADIAASRFEALVFAAALCFALGSVLTRRLDTDLPIETMEAWSMAGGALLMHALSLALGETVSGAPPTDALVALGYLAVVASAAGFLVYFDLLGRLGAIEINLVSYVVPVFAALVGVLLLGERVDTPTAAGFLLVFAGFVIIKRRAIRAEIADSYWP”, which protein production is on record?
**A.** failed

**Q.** With “MRYWKNSRIKMFEQEDEWISKTQMKKQMNDLQDLGMALTKLSNDTLKKIGLDADLYEAVTAYKKITSNGALKRQAQFIGRLMRDTDPAPIEAFLAKLRGDDAAHNAFLQRVEQARVRLLADDGALTQFMSDFPHADAGKLRTLIRNTKKEQEQNKPPKNFRALFQELKTVMENGDAEI” as the sequence, how does the protein production read?
**A.** failed

**Q.** For “MSAAPGLLHQELSCPLCLQLFDAPVTAECGHSFCRACLGRVAGEPAADGTVLCPCCQAPTRPQALSTNLQLARLVEGLAQVPQGHCEEHLDPLSIYCEQDRALVCGVCASLGSHRGHRLLPAAEAHARLKTQLPQQKLQLQEACMRKEKSVAVLEHQLVEVEETVRQFRGAVGEQLGKMRVFLAALEGSLDCEAERVRGEAGVALRRELGSLNSYLEQLRQMEKVLEEVADKPQTEFLMKYCLVTSRLQKILAESPPPARLDIQLPIISDDFKFQVWRKMFRALMPALEELTFDPSSAHPSLVVSSSGRRVECSEQKAPPAGEDPRQFDKAVAVVAHQQLSEGEHYWEVDVGDKPRWALGVIAAEAPRRGRLHAVPSQGLWLLGLREGKILEAHVEAKEPRALRSPERRPTRIGLYLSFGDGVLSFYDASDADALVPLFAFHERLPRPVYPFFDVCWHDKGKNAQPLLLVGPEGAEA”, which protein production is on record?
**A.** failed

**Q.** Which protein production does the source give for “MSAARQGVAQARRIVVKVGSSSLTTAAGGLDADRVDALVDVLAKSRSGGEKEIVLVSSGAIAAGLAPLGLRRRPKDLARQQAAASVGQGLLVARYTASCARHGIRVGQVLLTSDDTSRRAHHRNASRTLDKLLAMGALPVVNENDTVATDEIRFGDNDRLAALVAHLVRADLLVLLSDVDGVYDGDPSKPGTSRVAQVHGPQDLAHVEIGSAGRAGVGTGGMVTKIEAARIAAAAGIPVVLTSAVHAADALAGRDTGTYFHPTGKRSADRLLWLQHASTPQGALTLDDGAVRAVVERRKSLLPAGIAAVEGEFTAGDPVELRDSEGRAVARGLVSFDAKEIPQLLGRSTRELARELGPAYEREVVHRDDLVLLQP” here?
**A.** failed

**Q.** With “MSADGSEYGRYFEQLQKVNLTVRLGDTGSFDGTAAITSLKGSLAWLELFGAEQPPPNTLSEGAEVSVSVWTGGALCRCDGRVETLRDDRQFAIRLVGRVRELQRREYF” as the sequence, how does the protein production read?
**A.** not failed

**Q.** Which protein production does the source give for “MSADYPRDLIGYGNNPPHPHWPGDARIALSFVLNYEEGGERCVLHGDKESEAFLSEMVAAQPLQGVRHMSMESLYEYGSRAGVWRLLKLFKRRNVPLTVFAVAMAAQRNPEVIRAMVADGHEICSHGYRWIDYQYMDEAQEREHMLEAIRILTELTGQRPVGWYTGRTGPNTRRLVMEEGGFLYDSDTYDDDLPYWDPASTAEKPHLVIPYTLDTNDMRFTQVQGFNNGEQFFQYLKDAFDVLYEEGATAPKMLSIGLHCRLIGRPARMAALERFIQYAQSHDKVWFARREDIARHWHREHPFQETEA” here?
**A.** not failed

**Q.** With “MSAESASQIPKGQVDLLDFIDWSGVECLNQSSSHSLPNALKQGYREDEGLNLESDADEQLLIYIPFNQVIKLHSFAIKGPEEEGPKTVKFFSNKEHMCFSNVNDFPPSDTAELTEENLKGKPVVLKYVKFQNVRSLTIFIEANQSGSEVTKVQKIALYGST” as the sequence, how does the protein production read?
**A.** not failed

**Q.** With “MSAGKIDVHGFEKETLFFKNIASGSKGNCTLIWDSTDLIVIDLGITMKKFRDSIKSLDLAGRSISLFISHEHSDHIGGVPTTSKYVDMDVYMRPALSGSFRRKTYEMDGSLVVGNFEIRAFEIPHDAADPVGFSVLWHNRKISVVSDLGKVTDRVIESIRNSDILAFESNHDVEMLRTGSYPEALKRRILSDHGHLSNEQSAEAISRVATDDMRIILTHLSQENNRPEIALNEVKSYLENRNVRYRSIETADQYTGSSLYTLER” as the sequence, how does the protein production read?
**A.** failed
